Assay results from US20100129870.

How the values were obtained:
Test in all cases: filter
[1] = molecular target: ΔNS3 protein (NS3 protease domain) (Hepatitis C virus) (UniProt P26662); details: 100 nM protein; 4.9 at 50 nM; 0.1 without protein; Tris pH 7.8, Mg2+, Ca2+
[2] = molecular target: bovine serum albumin (BSA) (Bos taurus) (UniProt P02769); details: 100 nM BSA
[3] = molecular target: T1, myeloperoxidase (MPO) (Homo sapiens) (UniProt P05164); details: 100 nM MPO; 2.66 at 50 nM; 1.49 without protein
T1 sequence: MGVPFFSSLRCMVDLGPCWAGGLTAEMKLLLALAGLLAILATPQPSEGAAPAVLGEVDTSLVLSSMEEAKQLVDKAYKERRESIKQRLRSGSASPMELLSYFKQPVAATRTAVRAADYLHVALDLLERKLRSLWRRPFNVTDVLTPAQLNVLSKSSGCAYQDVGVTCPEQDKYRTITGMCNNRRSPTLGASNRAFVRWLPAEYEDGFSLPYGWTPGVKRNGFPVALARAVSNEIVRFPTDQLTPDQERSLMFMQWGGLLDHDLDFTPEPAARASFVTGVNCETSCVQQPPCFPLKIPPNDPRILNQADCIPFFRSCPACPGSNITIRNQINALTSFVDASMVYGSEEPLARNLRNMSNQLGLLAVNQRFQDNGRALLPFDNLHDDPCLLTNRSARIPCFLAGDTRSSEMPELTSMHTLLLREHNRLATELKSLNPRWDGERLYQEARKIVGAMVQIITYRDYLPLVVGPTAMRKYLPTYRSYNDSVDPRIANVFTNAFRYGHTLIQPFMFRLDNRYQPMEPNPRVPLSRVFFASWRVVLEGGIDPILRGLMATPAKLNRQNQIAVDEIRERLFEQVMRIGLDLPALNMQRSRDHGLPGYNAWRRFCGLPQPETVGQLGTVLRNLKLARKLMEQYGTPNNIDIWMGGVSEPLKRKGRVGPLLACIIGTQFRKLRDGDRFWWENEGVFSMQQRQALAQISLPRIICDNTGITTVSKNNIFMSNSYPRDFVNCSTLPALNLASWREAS

bovine serum albumin (BSA) (Bos taurus), sequence (P02769 25-607): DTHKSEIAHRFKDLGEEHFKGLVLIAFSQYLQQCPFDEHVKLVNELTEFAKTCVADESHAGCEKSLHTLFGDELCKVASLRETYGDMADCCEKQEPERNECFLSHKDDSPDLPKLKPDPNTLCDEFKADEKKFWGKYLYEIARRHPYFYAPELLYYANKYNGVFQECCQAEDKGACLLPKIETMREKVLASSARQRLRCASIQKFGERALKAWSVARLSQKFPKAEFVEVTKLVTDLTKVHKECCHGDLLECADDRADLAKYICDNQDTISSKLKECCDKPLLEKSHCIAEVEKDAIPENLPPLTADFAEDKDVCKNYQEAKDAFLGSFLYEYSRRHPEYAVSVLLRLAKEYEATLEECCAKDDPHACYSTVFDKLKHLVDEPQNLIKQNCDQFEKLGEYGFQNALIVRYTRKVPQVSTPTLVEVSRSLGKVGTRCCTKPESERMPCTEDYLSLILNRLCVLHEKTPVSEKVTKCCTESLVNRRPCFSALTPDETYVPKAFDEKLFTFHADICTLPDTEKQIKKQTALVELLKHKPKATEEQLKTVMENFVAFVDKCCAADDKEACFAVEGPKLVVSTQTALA

| Sequence | binding signal [1] [% bound] | binding signal [2] [% bound] | binding signal [3] [% bound] |
| --- | --- | --- | --- |
| GGGAGGUGGAACUGAAGGAGANNNNNNNNNNNNNNNNNNNNNNNNNNNNNNNNNNNNNNNNNNNNNNNNNNNNNNNACUUCGCAAUCGCUCUACGCA [RNA pool (generation zero)] | 8.1 | – | – |
| GGUAGAUACGAUGGANNNNNNNNNNNNNNNNNNNNNNNNNNNNNNCAUGACGCGCAGCCA [RNA pool 2] | – | 1.86 | 1.7 |
